How the values were obtained:
[1] = target: T1, rabbit CD19 (native, on the surface of rabbit B-cells) (rabbit); test: FACS, rabbit PBMC
T1 construct: Natural CD19 on rabbit PBMC / B-cells; also called rbCD19; native rabbit CD19
T1 chain: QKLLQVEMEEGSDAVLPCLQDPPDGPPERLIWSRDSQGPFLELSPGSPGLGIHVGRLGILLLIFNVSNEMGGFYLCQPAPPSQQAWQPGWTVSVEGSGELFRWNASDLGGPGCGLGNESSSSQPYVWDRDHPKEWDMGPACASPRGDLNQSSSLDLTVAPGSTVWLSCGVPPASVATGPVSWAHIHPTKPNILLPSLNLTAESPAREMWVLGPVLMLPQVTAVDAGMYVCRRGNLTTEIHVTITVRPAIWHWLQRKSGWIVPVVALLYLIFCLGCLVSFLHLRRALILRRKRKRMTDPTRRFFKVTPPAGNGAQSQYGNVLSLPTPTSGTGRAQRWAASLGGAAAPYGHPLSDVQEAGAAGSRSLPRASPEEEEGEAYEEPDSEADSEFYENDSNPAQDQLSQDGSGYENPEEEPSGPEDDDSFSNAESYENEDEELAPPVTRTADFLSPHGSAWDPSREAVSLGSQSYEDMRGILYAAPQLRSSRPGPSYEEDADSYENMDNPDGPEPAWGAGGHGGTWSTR
Description: FACS analysis was applied for screening of hybridomas and to identify those hybridomas that secrete antibodies against rabbit CD19. All IgG-producing hybridomas were screened by FACS analysis of rabbit peripheral blood mononuclear cells (PBMCs) double stained with a rabbit IgM binding antibody for B-cell identification.
Freshly isolated rabbit (PBMCs) were incubated with FITC labeled anti-rabbit IgM antibody (Southern Biotech) and IgG-positive hybridoma supernatants on ice. After 45 min. incubation the PBMCs were washed once with ice cold PBS and resuspended in an PE-labeled anti-mouse IgG antibody (Invitrogen) binding the murine IgG of the hybridoma supernatant. After another 45 min. incubation on ice the cells were washed again once with ice cold PBS. Finally, the PBMCs were resuspended in ice cold PBS and immediately subjected to the FACS analyses. DAPI-HCl in a concentration of 2 μg/ml (Cayman) was added prior to the FACS analyses to discriminate between dead and live cells. A Becton Dickinson FACS Canto II device equipped with a computer and the FACSDiva software (BD Biosciences) were used for the analysis.

[2] = target: T2, rabbit-CD19-GPI anchor-FLAG-tag fusion polypeptide (on transfected CHO-S / HEK293F cells) (rabbit; human); test: FACS, CHO-S transfected with CD19 expression plasmid, detection with anti-mIgG-APC
T2 sequence: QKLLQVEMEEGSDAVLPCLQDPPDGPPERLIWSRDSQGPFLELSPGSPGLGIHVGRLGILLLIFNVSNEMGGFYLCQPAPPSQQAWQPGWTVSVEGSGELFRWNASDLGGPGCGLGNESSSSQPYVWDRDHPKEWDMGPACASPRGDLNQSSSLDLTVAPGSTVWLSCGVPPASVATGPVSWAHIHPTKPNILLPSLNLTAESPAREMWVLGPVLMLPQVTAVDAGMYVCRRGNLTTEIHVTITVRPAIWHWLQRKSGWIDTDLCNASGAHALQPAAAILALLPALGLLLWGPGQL

[3] = target: T2, rabbit-CD19-GPI anchor-FLAG-tag fusion polypeptide (on transfected CHO-S / HEK293F cells) (rabbit; human); test: FACS, HEK293F transfected with CD19 expression plasmid, detection with anti-mIgG-APC

Ratio Q2/IgM (%) [1]: 93.2%
stained cells, absolute [n] [2]: 975 n
stained cells, relative to total number [%] [2]: 4.6%
stained cells, absolute [n] [3]: 7290 n
stained cells, relative to total number [%] [3]: 35.9%
B1: antibody 1H2 (mouse monoclonal anti-rabbit CD19 antibody) (antibody, mouse IgG2a, kappa, V domains shown)
VH: QVQLQQSGPEVVKPGASVRMSCKASGYIFTNHYIHWMKQRPGQGLEWVGCIYPGNVNSNYNEKFKGKATLTADKSSSTAYLQLSSLTSEDSAVYFCARGGYYGSSYSWFAYWGQGTLVIVSA
VL: DIVMTQSPATLSVTPGDRVSLSCRASQSISDFLHWYQQSSHESPRLLIKYASQSISGIPSRFSGSGSGSDFTLTINSVEPEDVGVYYCQNGHSFPYTFGGGTNLEIKR
notes: Mouse IgG from hybridoma; the chains are built here from variable domain plus constant region so that no leader is included; Tested as hybridoma supernatant, and later purified and labelled with Alexa 647 or biotin; also called clone 1H2; anti-CD19 A647

Source: patent US20220135672A1 (Hoffmann-La Roche, published 2022)
